Patent US7910550B2, “Human kunitz-type inhibitor with enhanced antifibrinolytic activity” (STC.UNM, priority 2004, dated 2011)

Key:
HT-1080 cells [1] = assay: FACS analysis of apoptosis with annexin V/propidium iodide; assay type: cell-based, human; conditions: 1 μM, 48 hours; for cells in a late apoptotic stage (annexin V and PI positive): vehicle 4%; for early apoptotic cells (annexin V-FITC positive): vehicle 16%
Protocol: All cell lines were maintained in Dulbecco's minimal essential medium (DMEM), supplemented with heat-inactivated 10% fetal bovine serum and penicillin-streptomycin. The cells were cultured either in 6- or 12-well plates at 37° C. in a humidified atmosphere containing 6% CO2. At confluence, the cells were treated with fresh medium containing either wild-type TFPI-2, R24K KD1, or R24Q KD1. Cells were treated in duplicate with purified proteins at concentrations ranging from 0.5 μM to 10 μM for different time intervals. One set were also treated with PBS to serve as a control. The Limulus Amebocyte Lysate (LAL) assay was performed on each protein preparation to determine the presence of any endotoxin/LPS, and only trace amounts of endotoxin (<0.5 ng/L) were detected in each protein preparation.
To assess the degree of apoptosis between the various treatments, cells were grown to confluence in 6 well plates and treated with either proteins or vehicle as described earlier. For annexin V staining, approximately 1.2×10^6 cells were harvested with PBS containing 1 mM EDTA and washed twice gently with cold PBS. The cells were suspended in 100 μl of cold binding buffer (10 mM Hepes (pH 7.4), 140 mM NaCl, 2.5 mM CaCl2), and subsequently incubated at room temperature in the dark for 25 minutes with 5 μl of FITC-conjugated annexin V and 10 μl of propidium iodide (50 μg/ml stock). The cells were then washed in 500 μl of binding buffer to remove unbound reagents, centrifuged at 900×g for 5 minutes, and resuspended in 1 ml of cold binding buffer. The labeled cells were then analyzed using a FACSCALIBUR flow cytometer (Becton Dickinson, San Jose, Calif.) and the data analyzed using […] software.

HT-1080 cells [2] = assay: Western blot of cell extracts (Bax, Bcl-2, cleaved caspase-9, cleaved caspase-3); assay type: cell-based, human; conditions: 1 μM, 48 hours; for activated caspase 9 and activated caspase 3 (immunoblot): vs vehicle-treated cells
Protocol: Cell extracts were analyzed for the pro-apoptotic Bax, the anti-apoptotic Bcl-2, cleaved caspase-9 and cleaved caspase-3 by immunoblotting techniques. Approximately, 1×10^6 HT-1080 cells were grown to confluence in 6-well plates and treated with recombinant proteins and vehicle as described above. Both floating and adherent cells were harvested and washed twice with cold PBS. The cells were lysed by sonication in 500 μl of lysis buffer containing of 125 mM Tris-HCl (pH 6.8), 2% SDS, 10% glycerol, 50 mM sodium phosphate, 1 mM PMSF and protease inhibitor cocktail. The lysate was kept on ice for about 10 minutes, centrifuged for 15 minutes at 10,000×g at 4° C., and the supernatant recovered. The supernatants were boiled for 3 min and 50 μg of lysate protein subjected to SDS-PAGE in 4-20% polyacrylamide gradient gels. […] The nitrocellulose membranes were then probed with specific antibodies dissolved in fresh blocking buffer, and immunoreactive proteins were identified using HRP-conjugated secondary antibodies and a chemiluminescent reagent system essentially as described in Kempiah et al., Mol. Cancer, 6:20, 2007. Separate blots were treated with mouse monoclonal anti-α-tubulin antibody in order to verify equal loading of lysate proteins onto the gel.

HT-1080 cells [3] = assay: DNA fragmentation analysis by agarose gel electrophoresis; assay type: cell-based, human; conditions: 48 hours
Protocol: Cells were grown to confluence in 6-well plates and treated with either wild-type TFPI-2 or R24K KD1 at the same concentrations described above. After incubation for either 24 or 48 hours at 37° C., the cells were harvested and washed twice with PBS. The DNA was then extracted using the DNEASY tissue kit (Qiagen, Valencia, Calif.) accordingly to the manufacturer's instructions. DNA extracts were electrophoresed in 1.8% agarose gels at 100 V for 45 minutes and visualized with ethidium bromide staining under UV illumination.

[4] = system: human colorectal cancer cell line (Colo-205); assay: Caspase activation in Colo-205 cells; assay type: cell-based; conditions: 48 hour exposure, 1 μM
[5] = system: human umbilical vein endothelial cells (HUVECs); assay: In vitro human endothelial cell angiogenesis assay (capillary tube formation on ECMATRIX); assay type: cell-based; conditions: for inhibition of angiogenesis (capillary-like tube formation): HUVECs on matrix
Source text: The angiogenesis assay is commercially available from Chemicon International, Inc. (Temecula, Calif.), and involves growing human umbilical vein endothelial cells (HUVECs) on a proprietary matrix, followed by assessing angiogenesis on this matrix by counting new branch points in sprouting endothelial cells.
A semi-quantitative assay for in vitro angiogenesis was utilized. Human umbilical vein endothelial cells (HUVEC, Clonetics Corp., Walkersville, Md.) were maintained in 25 cm^2 flasks in EGM-2 media (Clonetics Corp.) supplemented with 2% fetal bovine serum, gentamicin, amphotericin-B, hEGF, hydrocortisone, VEGF, hFGF-B, R^3-IGF-1, ascorbic acid and heparin. For assay, a 48-well tissue culture plate was coated with 100 μl of ECMATRIX (Chemicon International, Inc., Temecula, Calif.) followed by incubation at 37° C. for one hour. Approximately 5×10^4 cells were then seeded onto the surface of the polymerized matrix. Varying concentrations of full-length human TFPI-2, diluted in EGM-2 media and filtered, were added to the wells and plate was placed in 37° C.-humidified CO2 incubator. Each treatment was performed in duplicate wells. Separately, VEGF was used as a positive control. The three-dimensional organization of cells was examined every hour under an inverted photomicroscope. The capillary tube branch point formation was counted in each well following eight hours of incubation. For each concentration, eight randomly chosen areas under 250× magnified field were observed. The results are expressed as number of branching points (mean±SEM) and the differences between each mean value was tested by one way analysis of variance (ANOVA). Statistically p-value <0.05 was accepted.
To examine the effect of full-length human TFPI-2 on morphogenesis (capillary-like tube formation) of endothelial cells, HUVECs were seeded on the matrigel and treated with full-length human TFPI-2 (0.2 μM-5 μM).

[6] = system: FGF-2-induced angiogenesis; assay: FGF-2-induced cornea pocket assay; assay type: in vivo; conditions: preliminary studies

B1: R24K KD1: KD1 with lysine in place of arginine at position 24 (SEQ ID NO:3) (protein)
chain: DAAQEPTGNNAEICLLPLDYGPCKALLLRYYYDRYTQSCRQFLYGGCEGNANNFYTWEACDDACWRIEKVPKV
modifications: mutated active domain
**Q.** With B1 as the molecule, how does the “cells in a late apoptotic stage (annexin V and PI positive)” value (HT-1080 cells [1]) read?
**A.** Its value is about 58%.

**Q.** What about the “early apoptotic cells (annexin V-FITC positive)” value (HT-1080 cells [1]) of the same molecule?
**A.** The value was 41%.

**Q.** And the “Bax and Bcl-2 protein expression (immunoblot)” value (HT-1080 cells [2])?
**A.** Its value is “increased expression of the pro-apoptotic protein, Bax, and decreased expression of the anti-apoptotic protein, Bcl-2”.

**Q.** And the “activated caspase 9 and activated caspase 3 (immunoblot)” value (HT-1080 cells [2])?
**A.** Its value is “activation of caspase-9 and caspase-3”.

**Q.** And the DNA fragmentation (HT-1080 cells [3])?
**A.** The DNA fragmentation was “ladder pattern typically associated with DNA fragmentation and apoptosis”.

**Q.** What about the caspase activation [4] of the same molecule?
**A.** Its caspase activation is “caspase activation”.

B2: TFPI-2: Human tissue factor pathway inhibitor-2, 213 amino acid polypeptide with three tandem Kunitz-type domains (SEQ ID NO:1) (protein, listed as Homo sapiens)
chain: DAAQEPTGNNAEICLLPLDYGPCRALLLRYYYDRYTQSCRQFLYGGCEGNANNFYTWEACDDACWRIEKVPKVCRLQVSVDDQCEGSTEKYFFNLSSMTCEKFFSGGCHRNRIENRFPDEATCMGFCAPKKIPSFCYSPKDEGLCSANVTRYYFNPRYRTCDAFTYTGCGGNDNNFVSREDCKRACAKALKKKKKMPKLRFASRIRKIRKKQF
**Q.** Which results are given for B2?
**A.** capillary-like tube formation ([5]; 5 μM, overnight incubation): no complete tube formation even after overnight incubation; inhibition of angiogenesis (capillary-like tube formation) [5]: significantly inhibited the capillary-like tube formation of HUVECs in a dose-dependent manner; inhibition of angiogenesis (capillary-like tube formation) ([5]; listed as wild-type TFPI-2): inhibit angiogenesis; anti-angiogenic effect [6]: potent and dose-dependent anti-angiogenic effect; cells in a late apoptotic stage (annexin V and PI positive) (HT-1080 cells [1]): ~43%; early apoptotic cells (annexin V-FITC positive) (HT-1080 cells [1]): 55%; Bax and Bcl-2 protein expression (immunoblot) (HT-1080 cells [2]): increased expression of the pro-apoptotic protein, Bax, and decreased expression of the anti-apoptotic protein, Bcl-2; activated caspase 9 and activated caspase 3 (immunoblot) (HT-1080 cells [2]): activation of caspase-9 and caspase-3; DNA fragmentation (HT-1080 cells [3]): ladder pattern typically associated with DNA fragmentation and apoptosis
